Reference: US20070298445, “Cancer Therapeutic” (published 2007)

Molecular target: ZNF306 (UniProt Q9BRR0 Q9BRR0:1-538)
Assay: cell_activity; luciferase induction, duplicate tandem copies upstream of minimal tk promoter
Conditions: tags: expression plasmid or cDNA in colon cancer cells

Sequence of ZNF306 (Q9BRR0 whole entry, one chain of several): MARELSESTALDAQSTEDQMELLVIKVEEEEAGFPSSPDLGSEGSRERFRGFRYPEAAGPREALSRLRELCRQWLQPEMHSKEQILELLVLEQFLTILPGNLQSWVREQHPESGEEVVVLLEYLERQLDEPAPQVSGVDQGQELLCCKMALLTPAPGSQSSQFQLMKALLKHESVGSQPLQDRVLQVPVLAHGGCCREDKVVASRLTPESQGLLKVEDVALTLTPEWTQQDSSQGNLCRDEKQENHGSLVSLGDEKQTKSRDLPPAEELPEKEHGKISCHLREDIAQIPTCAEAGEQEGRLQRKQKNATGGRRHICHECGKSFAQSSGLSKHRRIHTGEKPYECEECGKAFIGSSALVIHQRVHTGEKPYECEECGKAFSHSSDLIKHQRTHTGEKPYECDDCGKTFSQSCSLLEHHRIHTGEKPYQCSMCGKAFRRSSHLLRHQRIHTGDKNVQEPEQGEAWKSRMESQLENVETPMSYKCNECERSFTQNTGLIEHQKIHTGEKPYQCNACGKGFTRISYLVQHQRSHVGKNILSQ

B1: integrin beta4 intron 1 wt probe (dsDNA)
DNA 1: TGAGGGG
DNA 2: CCCCTCA
  activity: 6 fold
